# Assay results from patent US20110289605A1, “Animal Model for Osteoarthritis and Intervertebral Disc Disease” (THE UNIVERSITY OF ROCHESTER, priority 2008, published 2011).
# Entries after “also recorded” stand apart in the source; their conditions may differ.
# Legend:
# [1] = tested on: IVD cells of Col2a1-CreER^T2;R26R transgenic mice; test: TM-induced Cre-recombination in intervertebral disc (IVD) cells, X-Gal staining; type: in vivo, mouse; conditions: TM to 2-week-old mice, X-Gal staining at 1 month of age; listed as TM
# Protocol: Since chondrocyte-specific β-catenin cAct mice (targeted by Col2a1-Cre transgenic mice) are embryonic lethal, to target intervertebral disc (IVD) cells (Col2a1-positive cell population) in postnatal and adult mice, the Col2a1-CreER^T2;R26R transgenic mice were used. Cre-recombination efficiency in IVD cells was determined in postnatal mice. TM (1 mg/10 g body weight, i.p., ×5 days) was administered into 2-week-old Col2a1-CreER^T2;R26R transgenic mice. Mice were sacrificed at 1 month of age and X-Gal staining was performed.
# [2] = tested on: Col2a1-CreER^T2;R26R mice; test: TM-induced Cre-recombination in articular and growth plate chondrocytes, X-Gal staining; type: in vivo, mouse; conditions: for Cre-recombination efficiency in articular chondrocytes: n=3
# Protocol: Col2a1-CreER^T2 transgenic mice were bred with Rosa26 reporter mice. Methods for mouse genotyping including primer sequences are the same as described previously (Chen et al., Genesis 45:44-50 (2007); Zhu et al., Osteoarthr. Cartilage 16:129-30 (2008)). Tamoxifen (TM, 1 mg/10 g body weight/day, i.p. injection, ×5 days) was administered to the 3- and 6-month-old mice, which were sacrificed 2 months after TM induction at the age of 5 and 8 months. Cre-recombination efficiency was evaluated by X-Gal staining. Nuclear Fast Red staining was performed as a counter stain. β-catenin^fx(Ex3)/fx(Ex3) mice were originally reported by Harada et al (Harada et al., Embo J. 18:5931-42 (1999)). The sequences of PCR primers for genotyping β-catenin^fx(Ex3)/fx(Ex3) mice are: upper primer, 5′-[…]-3′ (SEQ ID NO:10) and lower primer, 5′-[…]-3′ (SEQ ID NO:11). The 412-bp PCR product was detected in wild-type mice, and the 645-bp PCR product was detected in homozygous β-catenin^fx(Ex3)/fx(Ex3) mice. In heterozygous mice (β-catenin^fx(Ex3)/wt), both 412 and 645-bp PCR products were detected. The Col2a1-CreER^T2;β-catenin^fx(Ex3)/w transgenic mice and their Cre-negative littermates were used as controls and were administered TM as the experimental animals for phenotype analysis and cellular function studies.
# In the present study, TM-induced Cre-recombination in fully developed growth-plate cartilage was investigated. Thus, creating the possibility of completely separating the role of a specific gene in articular chondrocytes from its potential effect on the growth plate cartilage, which may indirectly affect the function of articular cartilage. Col2a1-CreER^T2 transgenic mice were bred with Rosa26 reporter mice (Soriano, Nat. Genet. 21:70-71 (1999); Mao et al., Proc. Natl. Acad. Sci. USA 96:5037-42 (1999)). TM induction was performed in the 3- and 6-month-old Col2a1-CreER^T2;R26R mice. Mice were then sacrificed 2 months after TM induction at the age of 5 and 8 months and Cre-recombination efficiency was evaluated by X-Gal staining.
# [3] = tested on: 3.4 kb mouse Mmp-13 promoter; test: Mmp-13 promoter activity; type: cell-based
# Protocol: (§1) To determine the signaling mechanism through which β-catenin regulates Mmp-13 gene expression, in vitro studies using a RCS chondrogenic cell line were performed. […] A putative Runx2 binding site was identified within the 3.4 kb region of the Mmp-13 promoter.
# [4] = tested on: RCS chondrogenic cell line; test: Wnt3a treatment, Runx2 protein expression (Western blot); type: cell-based; conditions: 0-48 hours
# Protocol: as §1
# [5] = tested on: RCS chondrogenic cell line; test: Wnt3a treatment of RCS cells, Mmp-13 mRNA expression; type: cell-based; conditions: 24 and 48 hours
# Protocol: Total RNA extracted from primary articular chondrocytes, articular cartilage tissue, or primary disc cells was prepared using Trizol (Invitrogen; Carlsbad, Calif.) according to the manufacturer's protocol. One microgram total RNA was used to synthesize cDNA by iScripts cDNA Synthesis Kit (Bio-Rad; Hercules, Calif.).
# as §1
Molecule,Cre-recombination efficiency in IVD cells [1],"Cre-recombination efficiency in growth plate chondrocytes ([2]; TM administered in 3- and 6-month-old mice, 2 months after induction)","Cre-recombination efficiency in articular chondrocytes ([2]; TM administered in 3-month-old mice, X-Gal staining 2 months after induction (5-month-old)) [%]","Cre-recombination efficiency in articular chondrocytes ([2]; TM administered in 6-month-old mice, X-Gal staining 2 months later (8-month-old)) [%]","Mmp-13 promoter activity, Runx2 binding site mutated ([3]; mutation of the Runx2 binding site in the promoter)",Mmp-13 promoter activity ([3]; wild-type 3.4 kb promoter),Runx2 protein expression [4],Runx2 protein expression ([4]; listed as Wnt3a2),Mmp-13 mRNA expression [5]
CC/C(=C(\c1ccccc1)c1ccc(OCCN(C)C)cc1)c1ccccc1 [Tamoxifen],high efficiency of Cre-recombination in annulus fibrosus cells and endplate cartilage cells but not in nucleus pulposus cells; also recorded: High Cre-recombination efficiency was observed in annulus fibrosus (AF) cells and endplate cartilage (EC) cells but not nucleus pulposus (NP) cells,less than 20%,84,76,,,,,
"Wnt3a: canonical Wnt ligand (protein, UniProt P56704 19-352, looked up) Protein Wnt-3a: SYPIWWSLAVGPQYSSLGSQPILCASIPGLVPKQLRFCRNYVEIMPSVAEGIKIGIQECQHQFRGRRWNCTTVHDSLAIFGPVLDKATRESAFVHAIASAGVAFAVTRSCAEGTAAICGCSSRHQGSPGKGWKWGGCSEDIEFGGMVSREFADARENRPDARSAMNRHNNEAGRQAIASHMHLKCKCHGLSGSCEVKTCWWSQPDFRAIGDFLKDKYDSASEMVVEKHRESRGWVETLRPRYTYFKVPTERDLVYYEASPNFCEPNPETGSFGTRDRTCNVSSHGIDGCDLLCCGRGHNARAERRREKCRCVFHWCCYVSCQECTRVYDVHTCK",,,,,completely blocked the stimulatory effect; also recorded: completely abolished,stimulated Mmp-13 promoter activity,stimulated Runx2 protein expression in a time-dependent manner,significantly up regulated,significantly increased; also recorded: stimulated Mmp-13 expression
